Patent publication US20240100162A1 (published 2024)

Columns and labels:
Test in all cases: killing
[1] = biological target: T1, MAGE-B2 peptide, G5S peptide on HLA-A*02:01 (human)
T1 peptide: GVYDSEEHSV

[2] = biological target: T2, MAGE-B2 peptide, G1A peptide on HLA-A*02:01 (human)
T2 peptide: AVYDGEEHSV

[3] = biological target: T3, MAGE-B2 peptide, E7K peptide on HLA-A*02:01 (human)
T3 peptide: GVYDGEKHSV

[4] = biological target: T4, MAGE-B2 peptide, V2C peptide on HLA-A*02:01 (human)
T4 peptide: GCYDGEEHSV

[5] = biological target: T5, MAGE-B2 peptide, Y3W peptide on HLA-A*02:01 (human)
T5 peptide: GVWDGEEHSV

[6] = biological target: T6, MAGE-B2 peptide, D4P peptide on HLA-A*02:01 (human)
T6 peptide: GVYPGEEHSV

[7] = biological target: T7, MAGE-B2 peptide, D4W peptide on HLA-A*02:01 (human)
T7 peptide: GVYWGEEHSV

[8] = biological target: T8, MAGE-B2 peptide, E6C peptide on HLA-A*02:01 (human)
T8 peptide: GVYDGCEHSV

[9] = biological target: T9, MAGE-B2 peptide, E6M peptide on HLA-A*02:01 (human)
T9 peptide: GVYDGMEHSV

[10] = biological target: T10, MAGE-B2 peptide, E6P peptide on HLA-A*02:01 (human)
T10 peptide: GVYDGPEHSV

[11] = biological target: T11, MAGE-B2 peptide, E6Q peptide on HLA-A*02:01 (human)
T11 peptide: GVYDGQEHSV

[12] = biological target: T12, MAGE-B2 peptide, E6S peptide on HLA-A*02:01 (human)
T12 peptide: GVYDGSEHSV

[13] = biological target: T13, MAGE-B2 peptide, E7A peptide on HLA-A*02:01 (human)
T13 peptide: GVYDGEAHSV

[14] = biological target: T14, MAGE-B2 peptide, E7F peptide on HLA-A*02:01 (human)
T14 peptide: GVYDGEFHSV

[15] = biological target: T15, MAGE-B2 peptide, E7I peptide on HLA-A*02:01 (human)
T15 peptide: GVYDGEIHSV

[16] = biological target: T16, MAGE-B2 peptide, E7S peptide on HLA-A*02:01 (human)
T16 peptide: GVYDGESHSV

[17] = biological target: T17, MAGE-B2 peptide, E7T peptide on HLA-A*02:01 (human)
T17 peptide: GVYDGETHSV

[18] = biological target: T18, MAGE-B2 peptide, E7W peptide on HLA-A*02:01 (human)
T18 peptide: GVYDGEWHSV

[19] = biological target: T19, MAGE-B2 peptide, H8A peptide on HLA-A*02:01 (human)
T19 peptide: GVYDGEEASV

[20] = biological target: T20, MAGE-B2 peptide, H8C peptide on HLA-A*02:01 (human)
T20 peptide: GVYDGEECSV

[21] = biological target: T21, MAGE-B2 peptide, H8D peptide on HLA-A*02:01 (human)
T21 peptide: GVYDGEEDSV

[22] = biological target: T22, MAGE-B2 peptide, H8E peptide on HLA-A*02:01 (human)
T22 peptide: GVYDGEEESV

[23] = biological target: T23, MAGE-B2 peptide, H8I peptide on HLA-A*02:01 (human)
T23 peptide: GVYDGEEISV

[24] = biological target: T24, MAGE-B2 peptide, H8K peptide on HLA-A*02:01 (human)
T24 peptide: GVYDGEEKSV

[25] = biological target: T25, MAGE-B2 peptide, H8L peptide on HLA-A*02:01 (human)
T25 peptide: GVYDGEELSV

[26] = biological target: T26, MAGE-B2 peptide, H8M peptide on HLA-A*02:01 (human)
T26 peptide: GVYDGEEMSV

[27] = biological target: T27, MAGE-B2 peptide, H8P peptide on HLA-A*02:01 (human)
T27 peptide: GVYDGEEPSV

[28] = biological target: T28, MAGE-B2 peptide, H8Q peptide on HLA-A*02:01 (human)
T28 peptide: GVYDGEEQSV

[29] = biological target: T29, MAGE-B2 peptide, H8R peptide on HLA-A*02:01 (human)
T29 peptide: GVYDGEERSV

[30] = biological target: T30, MAGE-B2 peptide, H8S peptide on HLA-A*02:01 (human)
T30 peptide: GVYDGEESSV

[31] = biological target: T31, MAGE-B2 peptide, H8V peptide on HLA-A*02:01 (human)
T31 peptide: GVYDGEEVSV

[32] = biological target: T32, MAGE-B2 peptide, S9F peptide on HLA-A*02:01 (human)
T32 peptide: GVYDGEEHFV

[33] = biological target: T33, MAGE-B2 peptide, S9H peptide on HLA-A*02:01 (human)
T33 peptide: GVYDGEEHHV

[34] = biological target: T34, MAGE-B2 peptide, S9K peptide on HLA-A*02:01 (human)
T34 peptide: GVYDGEEHKV

[35] = biological target: T35, MAGE-B2 peptide, S9L peptide on HLA-A*02:01 (human)
T35 peptide: GVYDGEEHLV

[36] = biological target: T36, MAGE-B2 peptide, S9M peptide on HLA-A*02:01 (human)
T36 peptide: GVYDGEEHMV

[37] = biological target: T37, MAGE-B2 peptide, S9R peptide on HLA-A*02:01 (human)
T37 peptide: GVYDGEEHRV

[38] = biological target: T38, MAGE-B2 peptide, S9Y peptide on HLA-A*02:01 (human)
T38 peptide: GVYDGEEHYV

[39] = biological target: T39, MAGE-B2 peptide, V10Y peptide on HLA-A*02:01 (human)
T39 peptide: GVYDGEEHSY

[40] = biological target: T40, MAGE-B2 peptide, E6N peptide on HLA-A*02:01 (human)
T40 peptide: GVYDGNEHSV

Measured: binding result

B1: TCR1 (TCR, V domains shown)
Valpha: KQEVTQIPAALSVPEGENLVLNCSFTDSAIYNLQWFRQDPGKGLTSLLLIQSSQREQTSGRLNASLDKSSGRSTLYIAASQPGDSATYLCAAMKTSYDKVIFGPGTSLSVIP
Vbeta: GEEVAQTPKHLVRGEGQKAKLYCAPIKGHSYVFWYQQVLKNEFKFLISFQNENVFDETGMPKERFSAKCLPNSPCSLEIQATKLEDSAVYFCASSQGQGGYGYTFGSGTRLTVV
recognises: [1] | [2] | [3] | [4] | [5] | [6] | [7]

B2: TCR3 (TCR, V domains shown)
Valpha: AQKVTQAQTEISVVEKEDVTLDCVYETRDTTYYLFWYKQPPSGELVFLIRRNSFDEQNEISGRYSWNFQKSTSSFNFTITASQVVDSAVYFCALSVLRMDSSYKLIFGSGTRLLVRP
Vbeta: NAGVTQTPKFRVLKTGQSMTLLCAQDMNHEYMYWYRQDPGMGLRLIHYSVGEGTTAKGEVPDGYNVSRLKKQNFLLGLESAAPSQTSVYFCASSLQGAGQPQHFGDGTRLSIL
not listed: [2] | [4] | [5] | [6] | [7] | [40]
recognises: all other assays above

B3: TCR2 (TCR, V domains shown)
Valpha: QKEVEQNSGPLSVPEGAIASLNCTYSDRGSQSFFWYRQYSGKSPELIMSIYSNGDKEDGRFTAQLNKASQYVSLLIRDSQPSDSATYLCAVNIPFSNSGGYQKVTFGTGTKLQVIP
Vbeta: NAGVTQTPKFRVLKTGQSMTLLCAQDMNHEYMYWYRQDPGMGLRLIHYSVGEGTTAKGEVPDGYNVSRLKKQNFLLGLESAAPSQTSVYFCASRHPGQYNQPQHFGDGTRLSIL
not listed: [1] | [3] | [4] | [7] | [10] | [39]
recognises: all other assays above
